The record followed here is article PMC9908077.

Holding throughout (experiment): cross-linking; 1 mM BMH (cysteine-specific) added to living transfected HEK293T cells in PBS/5 mM EDTA, 1 hr at room temperature in the dark, stopped with DTT; lysates on 3-8% Tris-Acetate gels, western blot with anti-NC antibody
(In general: Immunoblotting shows a protein as a band on a membrane.)

In assay [1] the target is CANC (N-terminally 3xHA-tagged CANC Gag fragment with the C-terminal SP2-p6 extension, from pCANC) (HIV-1 NL4-3).
Assay [2] deals with GCN4pAA-SP1-NC (HIV-1 NL4-3).
Assay [3] concerns the target GCN4pII-SP1-NC (HIV-1 NL4-3).
For assay [4], the target named is ccHex2-SP1-NC (HIV-1 NL4-3).

The stoichiometry N is a count of units in the complex or per binding partner.

Substance “CANC (N-terminally 3xHA-tagged CANC Gag fragment with the C-terminal SP2-p6 extension, from pCANC) (domain or fragment)” came in with a stoichiometry N in assay [1] of 8 to 10. For GCN4pAA-SP1-NC, the stoichiometry N in assay [2] was under 6. Take GCN4pII-SP1-NC: in assay [3], the stoichiometry N is under 6. Consider ccHex2-SP1-NC, for which the stoichiometry N in assay [4] was under 6.
